Among the data in publication PMC3461361 are stoichiometry N values, retold here.

The test addresses Invasion plasmid antigen B (IpaB) (S. flexneri). Briefly: native gel or EMSA.

For “Invasion plasmid antigen B (IpaB) (natural protein)”, the stoichiometry N was over 10.

Usually stoichiometry N stands for a count of units in the complex or per binding partner.
